The target of experiment [1] is Soluble FcγRIIb extracellular domain with C-terminal 10×His tag (UniProt P31994). Description: SPR (Protocol 2); ratio of FcγRIIb fold to FcγRIIaR fold over wild-type.
Experiment [2] has as its target Soluble FcγRIIaR extracellular domain with C-terminal 10×His tag (UniProt P12318). Put plainly: SPR (Protocol 2): one-armed antibody captured on immobilised HER2, soluble receptor as analyte; fold over wild-type.
The target in experiment [3] is Soluble FcγRIIb extracellular domain with C-terminal 10×His tag (UniProt P31994). Described as above.
Experiment [4] has as its target FcγRIIb (UniProt P31994). Put plainly: SPR (Protocol 1); FcγRIIb ratio over FcγRIIaR ratio.
Target sequence in this assay (P31994 43-217 limits assumed): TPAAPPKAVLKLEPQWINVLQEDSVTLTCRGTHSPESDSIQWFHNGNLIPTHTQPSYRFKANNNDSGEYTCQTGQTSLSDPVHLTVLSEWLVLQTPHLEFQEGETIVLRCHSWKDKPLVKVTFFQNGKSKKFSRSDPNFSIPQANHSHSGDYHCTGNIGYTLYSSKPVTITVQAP
The target of experiment [5] is FcγRIIaR (UniProt P12318). Description: SPR (Protocol 1), one-armed antibody captured on HER2, receptor as analyte; ratio to wild-type.
Chain of FcγRIIaR (P12318 34-217): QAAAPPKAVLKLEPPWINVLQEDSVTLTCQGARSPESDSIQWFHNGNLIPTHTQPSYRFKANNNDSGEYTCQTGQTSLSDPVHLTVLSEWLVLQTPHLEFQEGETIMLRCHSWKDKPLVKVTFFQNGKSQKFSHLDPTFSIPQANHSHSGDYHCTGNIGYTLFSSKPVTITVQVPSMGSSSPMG
Experiment [6] has as its target FcγRIIb (UniProt P31994). Described as above.
Target sequence in this assay (P31994 43-217 limits assumed): as the sequence (P31994 43-217 limits assumed) above
Experiment [7] deals with FcγRIIb (UniProt P31994). Put plainly: SPR (Protocol 1); IIb-Fold over IIaR-Fold.
Target sequence in this assay (P31994 43-217 limits assumed): as above
Experiment [8] deals with FcγRIIaR (UniProt P12318). Description: SPR (Protocol 1), one-armed antibody captured on HER2, receptor as analyte; fold over wild-type.
The target in experiment [9] is FcγRIIb (UniProt P31994). Described as above.
Target sequence in this assay (P31994 43-217 limits assumed): as above
For experiment [10], the target named is C1q (human) (UniProt P02745). Put plainly: C1q ELISA, antibody coated. Background: In an ELISA, binding on a coated surface is turned into a signal by an enzyme label.
Chain of C1q (human) (P02745 23-245 limits assumed, chain 1 of 3): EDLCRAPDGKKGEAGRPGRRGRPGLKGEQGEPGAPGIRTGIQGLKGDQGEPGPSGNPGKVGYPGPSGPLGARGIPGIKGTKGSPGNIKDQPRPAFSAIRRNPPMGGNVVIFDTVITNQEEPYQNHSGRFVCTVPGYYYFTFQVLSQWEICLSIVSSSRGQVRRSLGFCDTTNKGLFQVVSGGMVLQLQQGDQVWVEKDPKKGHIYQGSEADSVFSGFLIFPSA
Chain of C1q (human) (P02746 28-253 limits assumed, chain 2 of 3, further chain): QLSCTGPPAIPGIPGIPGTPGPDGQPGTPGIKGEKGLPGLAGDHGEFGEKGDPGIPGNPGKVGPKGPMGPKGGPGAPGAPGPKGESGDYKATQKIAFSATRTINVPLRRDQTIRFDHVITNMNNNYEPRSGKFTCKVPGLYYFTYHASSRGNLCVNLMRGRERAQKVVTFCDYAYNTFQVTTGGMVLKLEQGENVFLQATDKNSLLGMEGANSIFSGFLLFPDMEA
Chain of C1q (human) (P02747 29-245 limits assumed, chain 3 of 3, further chain): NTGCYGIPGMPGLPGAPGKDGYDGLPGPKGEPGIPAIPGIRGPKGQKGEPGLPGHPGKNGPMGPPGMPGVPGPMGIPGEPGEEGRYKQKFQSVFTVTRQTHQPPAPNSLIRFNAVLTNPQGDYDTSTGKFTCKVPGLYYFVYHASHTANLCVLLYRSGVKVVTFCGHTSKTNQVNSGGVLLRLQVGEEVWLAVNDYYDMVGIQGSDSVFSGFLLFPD
The target in experiment [11] is C1q (human) (UniProt P02745). Put plainly: cell-based or functional assay.
Experiment [12] deals with FcγRIIaR (UniProt P12318). Put plainly: SPR; trastuzumab FSA variant against FSA WT v21653. A general note: SPR reads the build-up and loss of mass on a sensor chip optically.
The target of experiment [13] is FcγRIIb (UniProt P31994). Put plainly: SPR; trastuzumab FSA variant against FSA WT v21653.
Target sequence in this assay (P31994 43-217): as the sequence (P31994 43-217 limits assumed) above
The target of experiment [14] is C1q (human) (UniProt P02745). Put plainly: ELISA; antibody coated, human C1q added, signal as % of WT.
In experiment [15] the target is FcγRIIb (UniProt P31994). Put plainly: SPR; ratio of IIb-fold to IIaR-fold, FcγRIIaR as comparison receptor.
Target sequence in this assay (P31994 43-217): as the sequence (P31994 43-217 limits assumed) above

Chain of Soluble FcγRIIaR extracellular domain with C-terminal 10×His tag (P12318 other isoform, or with tags, fused parts or gaps): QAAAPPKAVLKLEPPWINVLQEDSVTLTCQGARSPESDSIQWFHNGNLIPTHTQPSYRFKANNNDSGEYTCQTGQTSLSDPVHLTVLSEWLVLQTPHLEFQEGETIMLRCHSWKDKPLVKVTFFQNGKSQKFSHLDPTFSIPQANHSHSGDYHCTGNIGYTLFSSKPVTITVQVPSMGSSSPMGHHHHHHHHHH
Chain of Soluble FcγRIIb extracellular domain with C-terminal 10×His tag (P31994 other isoform, or with tags, fused parts or gaps): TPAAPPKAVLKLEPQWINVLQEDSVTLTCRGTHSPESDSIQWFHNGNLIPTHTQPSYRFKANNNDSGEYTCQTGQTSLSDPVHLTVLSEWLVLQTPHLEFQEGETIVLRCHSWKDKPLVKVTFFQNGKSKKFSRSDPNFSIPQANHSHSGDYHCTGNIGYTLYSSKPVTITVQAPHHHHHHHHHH

Regarding “Variant 19585, Lead 2 (one-armed trastuzumab antibody, heterodimeric IgG1 Fc; A: L234F_G236N_H268Q_K274Q_A327G_A330K_P331S / B: L234F_G236D_S239D_V266L_S267A_H268D_K274Q_A327G_A330S_P331S)”, the IIb/IIaR Selectivity (IIb-Fold/IIaR-Fold) in experiment [1] is 12. Further, the IIaR-fold (fold change in affinity over wild-type) in experiment [2] came out at 4.1 fold. In experiment [3], this substance yielded an IIb-fold (fold change in affinity over wild-type) of 49.5 fold.
In the case of “one-armed trastuzumab antibody (Scaffold 2), chain A L235D, chain B H268Q_K274Q”, in the experiment with FcγRIIb [4], the Selectivity IIb/IIaR is 2.2. Further, the Ka,mut/Ka,WT with FcγRIIaR [5] was determined as 1.03; with FcγRIIb [6], 2.24.
Substance “variant 16585, one-armed trastuzumab antibody (Scaffold 2), L234D in both chains” gave an IIb/IIaR Selectivity with FcγRIIb [7] of 2.7. Further, the Selectivity IIb/IIaR in the experiment with FcγRIIb [4] was determined as 2.7. The Ka,mut/Ka,WT turned out to be 0.17 with FcγRIIaR [5] and 0.47 with FcγRIIb [6]. In addition, in the experiment with FcγRIIaR [8], the IIaR-Fold (fold affinity over wild-type) amounted to 0.17 fold. Besides, the IIb-Fold (fold affinity over wild-type) in the experiment with FcγRIIb [9] is 0.47 fold.
Regarding “Variant 22117 (one-armed trastuzumab antibody, heterodimeric IgG1 Fc; A: L234D_G236N_H268Q_K274Q_A327G_A330K_P331S / B: L234F_G236D_S239D_V266L_S267A_H268D_K274Q_A327G_A330S_P331S)”, the IIb/IIaR Selectivity (IIb-Fold/IIaR-Fold) in experiment [1] came out at 12.7. Besides, the IIaR-fold (fold change in affinity over wild-type) in [2] was 2.3 fold. The substance also had an IIb-fold (fold change in affinity over wild-type) in experiment [3] of 28.7 fold.
As a reminder, the EC50 is the concentration at which the effect is half-maximal. Higher therefore signals a need for much substance. Take “anti-CD19 (4G7) full-size antibody, wild-type CH2 (variant 21653)”: the concentration giving a half-maximal response (EC50) with C1q (human) [10] came out at 0.31 nM.
Regarding “anti-CD19 (4G7) full-size antibody, Fc negative variant (L234A_L235A_D265S)”, in the experiment with C1q (human) [10], the C1q - Variant Binding Relative to WT (%) was 0.61% and the C1q Concentration at Onset of Binding turned out to be 29.6 nM.
Taken in the same sequence, the figures for “anti-CD19 (4G7) full-size antibody, control v12 (symmetrical E233D_G237D_P238D_H268D_P271G_A330R)” were 6.72% and 2.84 nM.
For the substance “anti-CD40 (Chi Lob 7/4) full-size antibody, wild-type CH2 (variant 21653)”, in the experiment with C1q (human) [10], the C1q Concentration at Onset of Binding was determined as 0.41 nM and the concentration for a half-maximal effect (EC50) was 1.49 nM.
Substance “anti-CD40 (Chi Lob 7/4) full-size antibody, control v12 (symmetrical E233D_G237D_P238D_H268D_P271G_A330R)” gave a C1q - Variant Binding Relative to WT (%) with C1q (human) [10] of 0%.
Turning to “Variant 19540, Lead 3 (one-armed trastuzumab antibody, heterodimeric IgG1 Fc; A: L234D_G236N_S267A / B: G236D_S239D_V266L_S267A_H268D)”, in [1], the IIb/IIaR Selectivity (IIb-Fold/IIaR-Fold) was determined as 14. Besides, the IIaR-fold (fold change in affinity over wild-type) in [2] came to 1.8 fold. This substance had an IIb-fold (fold change in affinity over wild-type) in [3] of 25.4 fold.
For “Variant 22115 (one-armed trastuzumab antibody, heterodimeric IgG1 Fc; A: L234D_G236N_S267A_H268Q_K274Q_A327G_A330K_P331S / B: G236D_S239D_V266L_S267I_H268D_L234F_K274Q_A327G_A330K_P331S)” the same measures were 5.9, 0.4 fold and 2.6 fold.
For the substance “anti-CD40 full-size antibody (Chi Lob 7/4 Fab) with wild-type CH2, v21653”, in the experiment with C1q (human) [11], the CDC assay on Ramos cells: Lysis (%) Mean, at highest test antibody concentration turned out to be 77.8% and the CDC assay on Ramos cells: Potency (ng/mL) Mean, antibody concentration above which >20% cell lysis was achieved was determined as 67.7 ng/mL.
In turn, “variant 16572, one-armed trastuzumab antibody (Scaffold 2), L234F in both chains” gave an IIb/IIaR Selectivity with FcγRIIb [7] of 2.48. Moreover, the Selectivity IIb/IIaR in the experiment with FcγRIIb [4] came out at 2.5. Further, the figures for the Ka,mut/Ka,WT with FcγRIIaR [5] and in the experiment with FcγRIIb [6] were 0.21 and 0.52, respectively. Further, the IIaR-Fold (fold affinity over wild-type) with FcγRIIaR [8] was 0.21 fold. In addition, the IIb-Fold (fold affinity over wild-type) in the experiment with FcγRIIb [9] turned out to be 0.52 fold.
In turn, “anti-CD40 full-size antibody (Chi Lob 7/4 Fab) with Fc negative variant (L234A, L235A, D265S)” registered a CDC assay on Ramos cells: Lysis (%) Mean, at highest test antibody concentration with C1q (human) [11] of 5.13%.
In the experiment with C1q (human) [10], “anti-CD40 (Chi Lob 7/4) full-size antibody, control SELF (S267E_L328F)” yielded a C1q - Variant Binding Relative to WT (%) of 50.4%, a C1q Concentration at Onset of Binding of 0.73 nM and an EC50 of 4.73 nM.
With “anti-CD19 (4G7) full-size antibody, control SELF (S267E_L328F)”, the EC50 with C1q (human) [10] was found to be 0.36 nM.
As for “Variant 22131 (one-armed trastuzumab antibody, heterodimeric IgG1 Fc; A: L234F_G236N_S267A / B: G236D_S239D_V266L_S267A_H268D)”, the IIb/IIaR Selectivity (IIb-Fold/IIaR-Fold) in [1] was 10.4. Moreover, in [2], the IIaR-fold (fold change in affinity over wild-type) came out at 4.3 fold. The IIb-fold (fold change in affinity over wild-type) in experiment [3] worked out at 45.1 fold.
On to “variant 16490, one-armed trastuzumab antibody (Scaffold 2), G236D in both chains”, for which, in the experiment with FcγRIIb [7], the IIb/IIaR Selectivity was 2.75. Further, the Selectivity IIb/IIaR in the experiment with FcγRIIb [4] was 2.7. The Ka,mut/Ka,WT is 0.81 in the experiment with FcγRIIaR [5] and 2.22 with FcγRIIb [6]. For the same substance, in the experiment with FcγRIIaR [8], the IIaR-Fold (fold affinity over wild-type) was determined as 0.81 fold. Also, the IIb-Fold (fold affinity over wild-type) with FcγRIIb [9] worked out at 2.22 fold.
In the case of “variant 16578, one-armed trastuzumab antibody (Scaffold 2), A327G_A330S_P331S_L234F_H268Q_K274Q in both chains”, the IIb/IIaR Selectivity in the experiment with FcγRIIb [7] came out at 4.35. Further, the Selectivity IIb/IIaR with FcγRIIb [4] was determined as 4.4. The Ka,mut/Ka,WT is 0.47 in the experiment with FcγRIIaR [5] and 2.03 with FcγRIIb [6]. For the same substance, the IIaR-Fold (fold affinity over wild-type) with FcγRIIaR [8] was 0.47 fold. Also, in the experiment with FcγRIIb [9], the IIb-Fold (fold affinity over wild-type) came out at 2.03 fold.
Turning to “anti-CD40 full-size antibody (Chi Lob 7/4 Fab) with control Fc SELF (S267E_L328F)”, in the experiment with C1q (human) [11], the CDC assay on Ramos cells: Lysis (%) Mean, at highest test antibody concentration was determined as 78.2%; the CDC assay on Ramos cells: Normalized Potency Mean is 93.6 % of WT; the CDC assay on Ramos cells: Potency (ng/mL) Mean, antibody concentration above which >20% cell lysis was achieved was 166 ng/mL.
As to “Variant 32276 (trastuzumab FSA; chain A P329V_strat2, chain B G237L_strat2) (antibody)”, in the experiment with FcγRIIaR [12], the IIaR-fold (fold change in affinity over wild-type) was 4 fold over WT. In the experiment with FcγRIIb [13], this substance displayed an IIb-fold (fold change in affinity over wild-type) of 94 fold over WT. The C1q Binding (% WT) with C1q (human) [14] was 3 % WT. Moreover, the IIb Selectivity (IIb-Fold/IIaR-Fold) with FcγRIIb [15] amounted to 24.
In the experiment with C1q (human) [11], “anti-CD40 full-size antibody (Chi Lob 7/4 Fab) with control Fc v12 (symmetrical E233D_G237D_P238D_H268D_P271G_A330R)” came in with a CDC assay on Ramos cells: Lysis (%) Mean, at highest test antibody concentration of 7.28%.
In the experiment with C1q (human) [10], “anti-HER2 (trastuzumab) full-size antibody, wild-type CH2 (variant 21653)” had a C1q Concentration at Onset of Binding of 0.16 nM and a concentration for a half-maximal effect (EC50) of 0.88 nM.
As for “Variant 22119 (one-armed trastuzumab antibody, heterodimeric IgG1 Fc; A: L234F_G236N_H268Q_K274Q_A327G_A330K_P331S / B: L234F_G236D_S239D_V266L_S267I_H268D_K274Q_A327G_A330S_P331S)”, the IIb/IIaR Selectivity (IIb-Fold/IIaR-Fold) in [1] came to 7.9. For the same substance, the IIaR-fold (fold change in affinity over wild-type) in [2] stood at 0.8 fold. Moreover, the IIb-fold (fold change in affinity over wild-type) in experiment [3] was 6.2 fold.
For “Variant 22120 (one-armed trastuzumab antibody, heterodimeric IgG1 Fc; A: L234F_G236N_H268Q_K274Q_A327G_A330K_P331S_K326D / B: L234F_G236D_S239D_V266L_S267A_H268D_K274Q_A327G_A330S_P331S_K326D)” the same measures were 8.8, 9.7 fold and 85.8 fold.
“anti-CD40 (Chi Lob 7/4) full-size antibody, Fc negative variant (L234A_L235A_D265S)” showed a C1q - Variant Binding Relative to WT (%) in the experiment with C1q (human) [10] of 0%.
Regarding “Variant 22116 (one-armed trastuzumab antibody, heterodimeric IgG1 Fc; A: L234D_G236N_S267A_K326D / B: G236D_S239D_V266L_S267A_H268D_K326D)”, the IIb/IIaR Selectivity (IIb-Fold/IIaR-Fold) in [1] is 12.1. The IIaR-fold (fold change in affinity over wild-type) in experiment [2] was 2.6 fold. In [3], this substance showed an IIb-fold (fold change in affinity over wild-type) of 31.9 fold.
On to “Variant 32274 (trastuzumab FSA; chain A P329A_strat2, chain B G237L_strat2) (antibody)”, for which the IIaR-fold (fold change in affinity over wild-type) with FcγRIIaR [12] came to 4 fold over WT. Besides, the IIb-fold (fold change in affinity over wild-type) with FcγRIIb [13] came out at 95 fold over WT. In the experiment with C1q (human) [14], the C1q Binding (% WT) amounted to 2 % WT. The IIb Selectivity (IIb-Fold/IIaR-Fold) with FcγRIIb [15] stood at 26.
